Among the data in US20250277023A1 are EC50 values, retold here.

This experiment deals with CHO-PD-L1 (UniProt Q9NZQ7). As to the kind of experiment: FACS binding; Fig. 23. (A flow cytometer gives signals particle by particle.)
Sequence of CHO-PD-L1 (Q9NZQ7 19-290): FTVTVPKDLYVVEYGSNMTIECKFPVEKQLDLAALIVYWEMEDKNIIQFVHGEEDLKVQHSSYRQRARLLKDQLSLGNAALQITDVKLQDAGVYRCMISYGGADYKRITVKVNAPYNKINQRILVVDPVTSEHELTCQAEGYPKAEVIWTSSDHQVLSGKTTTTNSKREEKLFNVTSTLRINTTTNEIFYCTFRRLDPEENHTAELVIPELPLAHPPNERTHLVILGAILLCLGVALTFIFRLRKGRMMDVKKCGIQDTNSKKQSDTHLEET

With R0514(avelumab-mIgG2a), the EC50 (in general, the concentration needed to bring the measured effect to its halfway point) stood at 494 pM.
